Measured values from patent US20150293119A1.

Assays:
[1] = molecular target: recombinant human MMP-9/NGAL complex (human) (UniProt P14780); assay: ELISA (Quantikine, R&D Systems)
[2] = molecular target: human CNP-53 (AA 51-103) (human) (UniProt P23582); assay: radioimmunoassay
[3] = molecular target: human CNP-22 (AA 82-103) (human) (UniProt P23582); assay: radioimmunoassay
[4] = molecular target: BNP (Homo sapiens (Human)) (UniProt P16860); assay: radioimmunoassay, competition with I125-labeled CNP
[5] = molecular target: adrenomedullin (Homo sapiens (Human)) (UniProt P35318); assay: as above
[6] = molecular target: human CNP-53 (AA 51-103) (human) (UniProt P23582); assay: as above
endothelin = assay: as above
[7] = molecular target: ANP (Homo sapiens (Human)) (UniProt P01160); assay: as above

## NGAL enzyme-linked immunoassay (Quantikine ELISA, R&D Systems) (tool reagent)
[1]
  cross-reactivity: 0.3%

## antibody that detects human CNP-22, non-equilibrium radioimmunoassay kit from Phoenix Pharmaceutical (Example 2) (tool reagent)
[2]
  cross-reactivity: 59%

## antibody that detects human CNP-53, non-equilibrium radioimmunoassay kit from Phoenix Pharmaceutical (tool reagent)
[3]
  cross-reactivity: 100%

## antibody to human CNP-22 of the non-equilibrium radioimmunoassay kit from Phoenix Pharmaceutical (Example 1) (tool reagent)
[4]
  cross-reactivity: < 1%
[5]
  cross-reactivity: < 1%
[6]
  cross-reactivity: 97%
endothelin
  cross-reactivity: < 1%
[7]
  cross-reactivity: < 1%
